For the test, the target named is hormone-binding domain (HBD) of ERα. The test can be described thus: two-hybrid.
Chain of hormone-binding domain (HBD) of ERα (P03372 whole entry, the tested form may be a part): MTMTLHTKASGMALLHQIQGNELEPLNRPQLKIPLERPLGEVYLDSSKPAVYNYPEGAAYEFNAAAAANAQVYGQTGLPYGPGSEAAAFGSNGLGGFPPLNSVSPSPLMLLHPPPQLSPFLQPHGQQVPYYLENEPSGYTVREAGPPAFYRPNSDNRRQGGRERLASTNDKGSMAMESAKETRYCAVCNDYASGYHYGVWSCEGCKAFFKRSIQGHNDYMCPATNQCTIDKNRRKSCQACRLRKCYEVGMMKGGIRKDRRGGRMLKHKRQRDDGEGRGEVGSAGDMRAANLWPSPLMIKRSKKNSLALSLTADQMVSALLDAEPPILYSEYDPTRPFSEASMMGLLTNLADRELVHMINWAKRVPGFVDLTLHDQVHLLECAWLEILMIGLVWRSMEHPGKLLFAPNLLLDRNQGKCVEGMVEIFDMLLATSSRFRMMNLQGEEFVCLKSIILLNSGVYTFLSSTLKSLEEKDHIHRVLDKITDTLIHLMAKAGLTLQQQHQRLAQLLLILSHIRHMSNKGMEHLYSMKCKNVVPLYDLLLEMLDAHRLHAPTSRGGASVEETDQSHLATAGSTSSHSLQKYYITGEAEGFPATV

Chain of PNRC1d (Q12796 186-327): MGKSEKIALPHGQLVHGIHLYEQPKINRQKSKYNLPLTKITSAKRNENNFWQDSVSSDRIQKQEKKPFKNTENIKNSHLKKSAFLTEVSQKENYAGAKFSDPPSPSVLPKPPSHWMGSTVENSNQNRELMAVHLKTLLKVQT

Regarding “PNRC1d (from UniProt Q12796 186-327) (natural protein)”, the fold increase of affinity compared to fl PNRC (two-hybrid β-galactosidase) is > 10 fold.

Values taken from publication PMC3644619.
